Experimental data as given in US20060246470A1 (published 2006).
Each block holds one binder with its values, some of them ahead of it.

What was measured:
GST-ER, P03372 = molecular target: T1, GST-ER, P03372
T1 chain: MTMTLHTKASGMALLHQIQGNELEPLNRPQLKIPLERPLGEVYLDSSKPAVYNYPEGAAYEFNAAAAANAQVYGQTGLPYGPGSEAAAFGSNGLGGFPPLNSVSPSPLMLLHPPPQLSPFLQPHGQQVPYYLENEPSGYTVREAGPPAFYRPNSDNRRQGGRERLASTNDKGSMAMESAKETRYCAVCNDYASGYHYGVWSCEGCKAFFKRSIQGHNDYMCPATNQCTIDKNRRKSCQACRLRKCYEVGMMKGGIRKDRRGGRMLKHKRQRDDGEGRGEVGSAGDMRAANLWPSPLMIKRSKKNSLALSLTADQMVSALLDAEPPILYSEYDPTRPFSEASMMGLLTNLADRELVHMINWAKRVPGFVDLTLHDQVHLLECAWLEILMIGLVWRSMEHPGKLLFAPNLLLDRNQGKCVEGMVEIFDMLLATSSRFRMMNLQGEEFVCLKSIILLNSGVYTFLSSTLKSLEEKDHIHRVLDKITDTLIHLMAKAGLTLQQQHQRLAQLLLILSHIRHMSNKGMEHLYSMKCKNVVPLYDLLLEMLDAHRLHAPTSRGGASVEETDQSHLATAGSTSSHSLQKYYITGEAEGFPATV

[1] = molecular target: T2, GST-RhoGDI (aa:1-81), P52565
T2 chain: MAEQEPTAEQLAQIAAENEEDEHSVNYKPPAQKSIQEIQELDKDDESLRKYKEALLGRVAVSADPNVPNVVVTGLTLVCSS

GST-RhoGDI, P52565 = molecular target: T3, GST-RhoGDI, P52565
T3 chain: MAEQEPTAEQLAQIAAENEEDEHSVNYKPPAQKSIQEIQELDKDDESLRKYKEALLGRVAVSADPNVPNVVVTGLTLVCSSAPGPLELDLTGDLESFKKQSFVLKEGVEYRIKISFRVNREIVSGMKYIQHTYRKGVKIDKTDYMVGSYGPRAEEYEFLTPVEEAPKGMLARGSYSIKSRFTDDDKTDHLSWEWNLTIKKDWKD

[2] = molecular target: T4, HER2, endogenous in MCF-7 cells (human, UniProt P04626 23-1255); assay: immunoprecipitation and immunoblot, MCF-7 cells
T4 construct: also called HER-2/neu
Procedure: In Panel B, immunoprecipitation of E or T treated MCF-7 cells was performed followed by immunoblot analysis.

[3] = molecular target: T5, in vitro translated, 35S-incorporated ER (UniProt P03372 1-595, 35S-incorporated (in vitro translated)); assay: GST pull-down with or without E2 or Tamoxifen (FIG. 29)
T5 construct: also called ERα
T5 sequence (looked up): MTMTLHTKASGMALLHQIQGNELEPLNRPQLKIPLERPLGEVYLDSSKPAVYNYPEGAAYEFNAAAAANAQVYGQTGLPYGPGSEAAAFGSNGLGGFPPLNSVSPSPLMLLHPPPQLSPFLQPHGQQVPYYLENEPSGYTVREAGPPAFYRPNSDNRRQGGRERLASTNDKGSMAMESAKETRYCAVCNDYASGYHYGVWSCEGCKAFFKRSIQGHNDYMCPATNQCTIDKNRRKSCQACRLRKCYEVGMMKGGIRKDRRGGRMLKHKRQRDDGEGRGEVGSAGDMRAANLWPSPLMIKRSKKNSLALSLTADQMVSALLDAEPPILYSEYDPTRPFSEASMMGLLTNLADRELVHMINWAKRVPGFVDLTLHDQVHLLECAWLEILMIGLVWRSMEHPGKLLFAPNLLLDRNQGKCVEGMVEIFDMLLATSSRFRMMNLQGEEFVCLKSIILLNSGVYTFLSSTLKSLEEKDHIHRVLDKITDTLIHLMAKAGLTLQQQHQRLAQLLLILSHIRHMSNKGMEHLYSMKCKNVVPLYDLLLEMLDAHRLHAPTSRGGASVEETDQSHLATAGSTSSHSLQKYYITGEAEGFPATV

B1: GST-p300 HAT (protein)
chain: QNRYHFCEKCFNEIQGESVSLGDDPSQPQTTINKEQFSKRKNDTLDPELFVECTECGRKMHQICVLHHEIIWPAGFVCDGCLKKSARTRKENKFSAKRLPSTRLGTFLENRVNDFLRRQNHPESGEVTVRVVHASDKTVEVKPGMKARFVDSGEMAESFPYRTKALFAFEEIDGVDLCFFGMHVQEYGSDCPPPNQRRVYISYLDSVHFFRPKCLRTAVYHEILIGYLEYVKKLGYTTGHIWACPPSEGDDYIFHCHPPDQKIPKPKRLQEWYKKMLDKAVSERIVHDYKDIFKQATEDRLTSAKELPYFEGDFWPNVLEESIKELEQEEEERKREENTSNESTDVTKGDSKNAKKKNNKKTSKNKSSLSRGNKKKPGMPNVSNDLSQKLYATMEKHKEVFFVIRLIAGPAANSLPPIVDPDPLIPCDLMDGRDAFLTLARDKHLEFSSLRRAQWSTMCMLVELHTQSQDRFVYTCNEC
competitive in vitro acetylation assay (GST-ER, P03372): Purified GST-ER was acetylated by GST-p300HAT in the presence of increasing amount of GST-RhoGDI.
in vitro acetylation assay (14C-acetyl-CoA, SDS-PAGE, autoradiography) [1]: The result indicates that N-terminal of RhoGDI contains acetylation site(s).
in vitro acetylation assay (14C-acetyl-CoA, SDS-PAGE, autoradiography) (GST-RhoGDI, P52565): RhoGDI, like ERα, is acetylated by p300.

binding result [2]: binds
B2: EBP50 (ezrin binding protein 50), endogenous in MCF-7 cells (other, human, UniProt O14745 2-358, looked up)
chain: SADAAAGAPLPRLCCLEKGPNGYGFHLHGEKGKLGQYIRLVEPGSPAEKAGLLAGDRLVEVNGENVEKETHQQVVSRIRAALNAVRLLVVDPETDEQLQKLGVQVREELLRAQEAPGQAEPPAAAEVQGAGNENEPREADKSHPEQRELRPRLCTMKKGPSGYGFNLHSDKSKPGQFIRSVDPDSPAEASGLRAQDRIVEVNGVCMEGKQHGDVVSAIRAGGDETKLLVVDRETDEFFKKCRVIPSQEHLNGPLPVPFTNGEIQKENSREALAEAALESPRPALVRSASSDTSEELNSQDSPPKQDSTAPSSTSSSDPILDFNISLAMAKERAHQKRSSKRAPQMDWSKKNELFSNL
notes: also called NHE-RF; SLC9A3R1

binding result [3]: no binding
B3: in vitro translated RhoGDI (other, UniProt P52565 1-204, looked up)
chain: MAEQEPTAEQLAQIAAENEEDEHSVNYKPPAQKSIQEIQELDKDDESLRKYKEALLGRVAVSADPNVPNVVVTGLTLVCSSAPGPLELDLTGDLESFKKQSFVLKEGVEYRIKISFRVNREIVSGMKYIQHTYRKGVKIDKTDYMVGSYGPRAEEYEFLTPVEEAPKGMLARGSYSIKSRFTDDDKTDHLSWEWNLTIKKDWKD
